From publication PMC7195432, “MD2 activation by direct AGE interaction drives inflammatory diabetic cardiomyopathy” (Nature Communications, 2020) come the findings set out here.

The assay concerns the target T1, glucose-derived AGE-modified bovine serum albumin (AGE-BSA) (bovine, UniProt P02769 25-607, advanced glycation end product (AGE) modification, glucose-derived, glycolaldehyde-mediated; the modified residues are not stated).
T1 construct: bovine serum albumin, chemically AGE-modified; A heterogeneous glycated preparation; also called AGE-modified BSA; glucose-derived, glycolaldehyde-mediated AGE-BSA; source: bought: BioVision Incorporated (Cat # 2223), purity >98%
Nature of the assay: ITC; Nano-ITC, 25 °C, proteins in ddH2O; AGE-BSA (1 μM) in the cell, MD2 protein solution (5 μM) in the syringe, 20 injections of 2.5 μL; independent model. The note with it: both partners purified.

T1 sequence (P02769 25-607): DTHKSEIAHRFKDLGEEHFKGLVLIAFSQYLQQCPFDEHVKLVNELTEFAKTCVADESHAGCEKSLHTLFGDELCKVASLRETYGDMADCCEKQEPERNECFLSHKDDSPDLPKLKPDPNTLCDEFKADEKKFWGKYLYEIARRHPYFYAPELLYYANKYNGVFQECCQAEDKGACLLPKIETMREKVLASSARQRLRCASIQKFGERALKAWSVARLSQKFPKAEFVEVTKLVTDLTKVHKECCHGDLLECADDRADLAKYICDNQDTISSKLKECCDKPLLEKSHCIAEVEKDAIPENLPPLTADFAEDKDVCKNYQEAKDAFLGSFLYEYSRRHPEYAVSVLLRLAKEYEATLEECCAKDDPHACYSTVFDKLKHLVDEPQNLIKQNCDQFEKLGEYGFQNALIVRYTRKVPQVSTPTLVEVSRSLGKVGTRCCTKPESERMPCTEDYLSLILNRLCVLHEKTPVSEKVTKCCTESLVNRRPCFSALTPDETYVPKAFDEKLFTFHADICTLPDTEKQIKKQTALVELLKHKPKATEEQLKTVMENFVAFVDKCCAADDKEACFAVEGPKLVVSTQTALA

B1: recombinant human MD2 (rhMD2) (natural protein, UniProt Q9Y6Y9 19-160, looked up)
chain: QKQYWVCNSSDASISYTYCDKMQYPISINVNPCIELKRSKGLLHIFYIPRRDLKQLYFNLYITVNTMNLPKRKEVICRGSDDDYSFCRALKGETVNTTISFSFKGIKFSKGKYKCVVEAISGSPEEMLFCLEFVILHQPNSN
notes: MD2 (myeloid differentiation 2), human, recombinant; also called human recombinant MD2 protein; source: bought: R&D Systems
Turning to B1, the Kd worked out at 81 µM. This lies in the double-digit micromolar range.
